Test results taken from PMC4605297.

Target: T1, SsOGT C29A C29A (Sulfolobus solfataricus) (UniProt Q97VW7)
T1 sequence: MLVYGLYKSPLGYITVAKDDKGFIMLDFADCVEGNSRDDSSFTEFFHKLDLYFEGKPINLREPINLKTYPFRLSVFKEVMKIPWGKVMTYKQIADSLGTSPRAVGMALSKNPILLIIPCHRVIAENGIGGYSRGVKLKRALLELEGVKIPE
Assay: competition
Details: O6-methylguanine at position 26 of strand 1; EMSA: 0-25 uM protein, 0.2 uM probe, 37 C 10 min, 10 ul, buffer as ref. 17, 8% native PAGE in 1X TBE pH 8.3; competition: BG-VG assay, 50 C under ref. …

GGCAGTAGGCCTAGCATGACAATCTGCATTGGTGATCACGG / CGCTCATCCACAATGCAGATTGTCATGCTAGGCCTACTGCC [ds-Fwdm26]
Ki: 1.03 µM
